Here are results for one substance from patent publication US20050249746A1.

Values joined by “and” are separate entries in the source; they are usually repeats but may differ in a detail not shown here. Equal entries are not always repeated.

Assay [1] deals with wild-type recombinant lipoprotein P4 (rLP4) of non-typable Haemophilus influenzae (non-typable Haemophilus influenzae) (UniProt P26093). In words: ELISA on coated wild-type rLP4; week 0 serum. On the technique in general: In an ELISA, binding on a coated surface is turned into a signal by an enzyme label.
For assay [2] the target is unchanged. The assay is described as follows: ELISA on coated wild-type rLP4; preimmune serum pool.

Consider pre-immune mouse serum (antibody), for which, in assay [1], the Anti-rP4 ELISA titer was 53 titer and 62 titer; the ELISA titer came out at 53 titer. For the same substance, the ELISA titer in assay [2] was 82 titer and 65 titer.
